Test results taken from publication PMC9972910.

Legend:
[1] = biological target: LptB2FG complex (Escherichia coli) (UniProt P0A9V1); experiment: SPR; LptB2FG or LptB2F^R212GG covalently immobilised, increasing concentrations of monomeric LptA flowed over; fitted at equilibrium; details in Text S1
[2] = biological target: LptB2F^R212GG complex (Escherichia coli) (UniProt P0A9V1); experiment: as above

“monomeric version of LptA (from UniProt P0ADV1 28-159) (domain or fragment)” showed a Kd [1] of 74 µM and a Kd [2] of 81 µM.
